Consider 3 molecules from article PMC4956616, “Structural Insights into Arl1-Mediated Targeting of the Arf-GEF BIG1 to the trans-Golgi” (Cell Reports, 2016).

B1: His6-DCB^Δ51–71 (human BIG1 residues 1–228 with a deletion of residues 51–71 inclusive) (domain or fragment, UniProt Q9Y6D6 1-228, looked up)
chain: MYEGKKTKNMFLTRALEKILADKEVKKAHHSQLRKACEVALEEIKAETEKTNFIEADKYFLPFELACQSKCPRIVSTSLDCLQKLIAYGHLTGNAPDSTTPGKKLIDRIIETICGCFQGPQTDEGVQLQIIKALLTAVTSQHIEIHEGTVLQAVRTCYNIYLASKNLINQTTAKATLTQMLNVIFARMENQALQEAKQMEKERHRQH
notes: also called DCB^((Δ51–71) BIG1); source: E. coli BL21-(DE3)-RIPL, co-expressed with GST-Arl1^Q71L, purified (glutathione-Sepharose, TEV release, Superdex 75)

Series [1] concerns the molecule itself. Kind of series: crystal structure; Arl1^Q71L-GTP/Mg2+/DCB^Δ51–71, space group C2, one complex per asymmetric unit, 2.3 Å, molecular replacement.
Series [2] concerns the molecule itself. Kind of series: SEC-MALS; MBP-tagged DCB^BIG1 proteins on Superdex-75 HR10/300, 0.5 ml/min, PBS pH 7.5, 150 mM NaCl, 5 mM MgCl2, 0.001% Triton X-100; dimer to monomers. In general terms: SEC sorts molecules by how far they enter the pores of the column.
Series [3] has as its target T1, His6-DCB^BIG1 (human BIG1 residues 1–228) (human, UniProt Q9Y6D6 1-228).
T1 construct: also called DCB domain; source: E. coli BL21-CodonPlus (DE3)-RIPL, purified (Ni-NTA); not shown: His6, N-terminal, kept
T1 sequence (looked up): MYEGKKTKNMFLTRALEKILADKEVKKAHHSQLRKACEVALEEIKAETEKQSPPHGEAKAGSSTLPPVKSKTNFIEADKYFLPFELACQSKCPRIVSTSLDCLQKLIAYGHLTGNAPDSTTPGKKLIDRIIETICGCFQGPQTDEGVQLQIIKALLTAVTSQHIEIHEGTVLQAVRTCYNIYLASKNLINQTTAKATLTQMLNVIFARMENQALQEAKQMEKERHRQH
Kind of series: pull-down; 2 nM GST-Arl1 loaded with GMP-PNP or GDP mixed with 2 nM His6-tagged protein in 500 μl buffer C (20 mM Tris-HCl, 110 mM KCl, 1 mM DTT, 0.1% Triton X-100) plus 5 mM MgCl2, 4°C 30 min, captured on glutathione-Sepharose; SDS-PAGE, Coomassie. The following applies: both partners purified.

Series [4] has as its target B1. The series is described as above. To be noted: both partners purified.
In series [5] the target is T2, His6-tagged BIG2 N-terminal fragment (1–216) (human, UniProt Q9Y6D5 1-216).
T2 construct: human BIG2, UniProt Q9Y6D5, N-terminal fragment, residues 1-216; also called related region from BIG2; source: E. coli BL21-CodonPlus (DE3)-RIPL, purified (Ni-NTA); not shown: His6, N-terminal, kept
T2 sequence (looked up): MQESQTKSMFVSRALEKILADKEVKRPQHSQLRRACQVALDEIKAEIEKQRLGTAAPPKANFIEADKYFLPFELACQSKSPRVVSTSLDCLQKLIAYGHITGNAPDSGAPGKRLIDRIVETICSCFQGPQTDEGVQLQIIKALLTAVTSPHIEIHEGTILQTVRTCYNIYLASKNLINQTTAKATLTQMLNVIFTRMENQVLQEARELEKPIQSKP
Described as above. To be noted: both partners purified.

As to B1, the binding result in series [1] is reported as “binds”.

B2: MBP-tagged DCB^BIG1 (wild type) (domain or fragment, human, UniProt Q9Y6D6 1-228, looked up)
chain: MYEGKKTKNMFLTRALEKILADKEVKKAHHSQLRKACEVALEEIKAETEKQSPPHGEAKAGSSTLPPVKSKTNFIEADKYFLPFELACQSKCPRIVSTSLDCLQKLIAYGHLTGNAPDSTTPGKKLIDRIIETICGCFQGPQTDEGVQLQIIKALLTAVTSQHIEIHEGTVLQAVRTCYNIYLASKNLINQTTAKATLTQMLNVIFARMENQALQEAKQMEKERHRQH
notes: Expected monomer 69 kDa, measured average 129 kDa; also called MBP-DCB^BIG1; not shown: MBP, N-terminal, kept
On to B2, for which, in series [2], the “stoichiometry N” value amounted to 2.

B3: GST-Arl1^ΔN14 (human Arl1 residues 15–181), loaded with GMP-PNP or GDP (domain or fragment, UniProt P40616 15-181, looked up)
chain: TREMRILILGLDGAGKTTILYRLQVGEVVTTIPTIGFNVETVTYKNLKFQVWDLGGQTSIRPYWRCYYSNTDAVIYVVDSCDRDRIGISKSELVAMLEEEELRKAILVVFANKQDMEQAMTSSEMANSLGLPALKDRKWQIFKTSATKGTGLDEAMEWLVETLKSRQ
notes: human Arl1, UniProt P40616, residues 15-181 (lacks the N-terminal amphipathic helix, residues 1-14); it was loaded with nucleotide (GMP-PNP or GDP) in vitro; also called Arl1^GTP; GST-Arl1^GMP-PNP; source: E. coli BL21-CodonPlus (DE3)-RIPL, purified (glutathione-Sepharose); not shown: GST, N-terminal, kept
B3: the binding result in series [3], in series [4] and in series [5] was “binds” each time.

One may read the stoichiometry N as the number of molecules, sites or subunits per partner or assembly.
